Experimental data taken from patent CN116836278A.

Columns and labels:
[1] = biological target: Prog-Albumin偶联物(购自益缪诺，货号PROGO2); experiment: indirect ELISA, Prog-Albumin conjugate coated at 3 ug/ml, antibody at 125 ng/ml
[2] = biological target: Prog-Albumin偶联物(购自益缪诺，货号PROGO2); experiment: indirect ELISA, Prog-Albumin conjugate coated at 3 ug/ml, antibody at 250 ng/ml
[3] = biological target: Prog-Albumin偶联物(购自益缪诺，货号PROGO2); experiment: indirect ELISA, Prog-Albumin conjugate coated at 3 ug/ml, antibody at 62.5 ng/ml
[4] = biological target: Prog-Albumin偶联物(购自益缪诺，货号PROGO2); experiment: indirect ELISA, Prog-Albumin conjugate coated at 3 ug/ml, antibody at 31.25 ng/ml
[5] = biological target: Prog-Albumin偶联物(购自益缪诺，货号PROGO2); experiment: indirect ELISA, Prog-Albumin conjugate coated at 3 ug/ml, antibody at 15.625 ng/ml
[6] = biological target: Prog-Albumin偶联物(购自益缪诺，货号PROGO2); experiment: biolayer interferometry, AMC sensor, antibody immobilised at 10 ug/ml, Prog-Albumin conjugate in dilution series

OD450 [1] | OD450 [2] | OD450 [3] | OD450 [4] | OD450 [5] | Kd [6] | koff [6] | kon [6] | Molecule
1.85 OD | 2.19 OD | 0.686 OD | 0.319 OD | 0.148 OD | 9.12 nM | 0.0002 s⁻¹ | 21900 M⁻¹ s⁻¹ | 对照 (antibody)
1.92 OD | 2.22 OD | 0.94 OD | 0.566 OD | 0.32 OD | 0.168 nM | 0.00032 s⁻¹ | 1.91e+06 M⁻¹ s⁻¹ | Anti-Prog-5B3mut1 (antibody, V domains shown) VH: QVRLQESGPSLVKPSQTLSLTCTVSGFELTSKAVGWVRQAPGKVPEWLGSIVSGGATYYDPALKSRLTITRDTSKSQVSLSISSVSSEDTAEYWCVRASYAAGIWYFDYWGPGLLVTVSS VL: QAVLTQPPSVSGSLGQRVSLTCSGSSTNIGGGSYVHWYQRLPASGLKTIIYGTSRRPSGVPDRFSGSRSGNTATLTITSLQAEDEADYYCATEDSGSYPFGSGTRLTVLG
2.06 OD | 2.36 OD | 1.07 OD | 0.603 OD | 0.36 OD | 0.33 nM | 0.00027 s⁻¹ | 819000 M⁻¹ s⁻¹ | Anti-Prog-5B3mut2 (antibody, part only; not given: light chain, part only) heavy: QVRLQESGPSLVKPSQTLSLTCTVSGFELTSKAVGWVRQAPGKVPEWLGSIVSGGATYYDPALKSRLTITRDTSKSQVSLSISSVSSEDTAEYWCVRASYAAGIWYFDYWGPGLLVTVSSASTTPPKVYPLTSCCGDTSSSIVTLGCLVSSYMPEPVTVTWNSGALTSGVHTFPAILQSSGLYSLSSVVTVPASTSGAQTFICNVAHPASSTKVDKRVGLSSDYSKCSKPPCVSRPSVFIFPPKPKDSLMITGTPEVTCVVVDVGQGDPEVQFSWFVDNVEVRTARTKPREEQFNSTFRVVSALPIQHDHWTGGKEFKCKVHSKGLPAPLVRTISRAKGQAREPQVYVLAPPQEELSKSTLSVTCLVTGFYPDYIAVEWQRARQPESEDKYGTTTSQLDADGSYFLYSRLRVDKSSWQRGDTYACVVMHEALHNHYTQKSISKPPGK
